We go through 32 variants from the RNAGym collection of RNA variant scans (doi:10.7554/elife.80360).

Sequences and labels used below:
B1: HDV Ribozyme (parent)
chain: GGCCGGCAUGGUCCCAGCCUCCUCGCUGGCGCCGGCUGGGCAACAUUCCGAGGGGACCGUCCCCUCGGUAAUGGCGAAUGGGACCCA

Variants of B1 are the subject of the data set. As to the kind of experiment: self-cleavage, relative activity (ratio to wild type); higher = more cleavage; co-transcriptional.
Turning to GGCCGGCAUGGUCCCAGCCUCCUCGCUGGCGCCGGCUGGGCAACAUUCCUAGGGGACCGUCCCCUCGGUAAUGGCGAAUGGGGCCCA [G50U A83G], the self-cleavage was determined as 0.818.
On to GGCCGGCAUGGUCCCAGCCUCCUCGCUGGCGCCGGCUGGGCAACAUUCCUAGGGGACCGUCCCCUCGGUAAUGGCGUAUGGGACCCA [G50U A77U], for which the self-cleavage stood at 0.62.
GGCCGGCAUGGUCCCAGCCUCCUCGCUGGCGCCGGCUGGGCAACAUUCCGCGGGGACCGUCCCCUCGGUCAUGGCGAAUGGGACCCA [A51C A70C]: the self-cleavage was found to be 1.03.
With GGCCGGCAUGGUCCCAGCCUCCUCGCUGGCGCCGGCUGGGCAACAUUCCUAGGGGACCGUCCCCUGGGUAAUGGCGAAUGGGACCCA [G50U C66G], the self-cleavage came out at 0.787.
GGCCGGCAUGGUCCCAGCCUCCUCGCUGGCGCCGGCUGGGCAACAUUCCCAGGGGACCGUCCCCACGGUAAUGGCGAAUGGGACCCA [G50C U65A]: the self-cleavage is 0.919.
Take GGCCGGCAUGGUCCCAGCCUCCUCGCUGGCGCCGGCUGGGCAACAUUCCGCGGGGUCCGUCCCCUCGGUAAUGGCGAAUGGGACCCA [A51C A56U]: the self-cleavage was determined as 1.05.
Next, GGCCGGCAUGGUCCCAGCCUCCUCGCUGGCGCCGGCUGGGCAACAUUCCUAGGGGACCGUCCCCUCGGUAAUGGCGAAUGGGAGCCA [G50U C84G]: 0.724; GGCCGGCAUGGUCCCAGCCUCCUCGCUGGCGCCGGCUGGGCAACAUUCCUAGGGGACCGUCCCCUCGGUAAUGGCGAAUGGGAACCA [G50U C84A]: 0.974; GGCCGGCAUGGUCCCAGCCUCCUCGCUGGCGCCGGCUGGGCAACAUUCCUAGGGGACCGUCCCCUCGGUAAUCGCGAAUGGGACCCA [G50U G73C]: 0.268.
Take GGCCGGCAUGGUCCCAGCCUCCUCGCUGGCGCCGGCUGGGCAACAUUCCGCGGGGACCGUCCCCUCGGUAAUGGCGAUUGGGACCCA [A51C A78U]: the self-cleavage is 0.133.
For the variant GGCCGGCAUGGUCCCAGCCUCCUCGCUGGCGCCGGCUGGGCAACAUUCCGCGGGGACCGUUCCCUCGGUAAUGGCGAAUGGGACCCA [A51C C61U], the self-cleavage is 0.914.
In the case of GGCCGGCAUGGUCCCAGCCUCCUCGCUGGCGCCGGCUGGGCAACAUUCCUAGGGGACCGUCCCCGCGGUAAUGGCGAAUGGGACCCA [G50U U65G], the self-cleavage came out at 0.945.
Regarding GGCCGGCAUGGUCCCAGCCUCCUCGCUGGCGCCGGCUGGGCAACAUUCCUAGGGGACCGUCCCCUCGGUAAUGGCGAAUGGGACCCA [G50U], the self-cleavage turned out to be 0.989.
With GGCCGGCAUGGUCCCAGCCUCCUCGCUGGCGCCGGCUGGGCAACAUUCCGCGGGGACCAUCCCCUCGGUAAUGGCGAAUGGGACCCA [A51C G59A], the self-cleavage was determined as 0.92.
With GGCCGGCAUGGUCCCAGCCUCCUCGCUGGCGCCGGCUGGGCAACAUUCCCAGGGGACCAUCCCCUCGGUAAUGGCGAAUGGGACCCA [G50C G59A], the self-cleavage amounted to 0.992.
GGCCGGCAUGGUCCCAGCCUCCUCGCUGGCGCCGGCUGGGCAACAUUCCGCGGGGACCGUCCCCUCGGUAAUGGCGAAUGGGACCUA [A51C C86U]: the self-cleavage turned out to be 1.01.
With GGCCGGCAUGGUCCCAGCCUCCUCGCUGGCGCCGGCUGGGCAACAUUCCGCGGGGACCGUCCCCUCGGUAAUGGCGAAUGGGACCAA [A51C C86A], the self-cleavage was found to be 0.872.
The same measure for GGCCGGCAUGGUCCCAGCCUCCUCGCUGGCGCCGGCUGGGCAACAUUCCGCGGGGACCGUCCCCUCGGUAAUGGCGAAUGGGACCGA [A51C C86G]: 0.712; for GGCCGGCAUGGUCCCAGCCUCCUCGCUGGCGCCGGCUGGGCAACAUUCCUAGGGGACCGUCCCCUCGUUAAUGGCGAAUGGGACCCA [G50U G68U]: 0.576; for GGCCGGCAUGGUCCCAGCCUCCUCGCUGGCGCCGGCUGGGCAACAUUCCUAGGGGACCGUCCCCUCGGUAAUGGCCAAUGGGACCCA [G50U G76C]: 1.19.
GGCCGGCAUGGUCCCAGCCUCCUCGCUGGCGCCGGCUGGGCAACAUUCCUAGGGGACCGUCCCCUCGGUAAUGGCGAAUGGAACCCA [G50U G82A]: the self-cleavage was determined as 0.499.
Consider GGCCGGCAUGGUCCCAGCCUCCUCGCUGGCGCCGGCUGGGCAACAUUCCGCGGGGACCGUCCCCUCGGUAAUGGCGAAUGGUACCCA [A51C G82U], for which the self-cleavage came out at 0.386.
On to GGCCGGCAUGGUCCCAGCCUCCUCGCUGGCGCCGGCUGGGCAACAUUCCGCGGGGACCGUCCCCUCGGUAAUGGCGAAUGGGAACCA [A51C C84A], for which the self-cleavage was determined as 0.675.
The same measure for GGCCGGCAUGGUCCCAGCCUCCUCGCUGGCGCCGGCUGGGCAACAUUCCGCGGGGACCGUCCCCUCGGUAAUGGCGAAUUGGACCCA [A51C G80U]: 0.199.
For GGCCGGCAUGGUCCCAGCCUCCUCGCUGGCGCCGGCUGGGCAACAUUCCUAGGGGACCGUCCCCUCGGUAAUGGCGAAUGGGACACA [G50U C85A], the self-cleavage is 0.742.
In the case of GGCCGGCAUGGUCCCAGCCUCCUCGCUGGCGCCGGCUGGGCAACAUUCCUUGGGGACCGUCCCCUCGGUAAUGGCGAAUGGGACCCA [G50U A51U], the self-cleavage was found to be 1.05.
Consider GGCCGGCAUGGUCCCAGCCUCCUCGCUGGCGCCGGCUGGGCAACAUUCCGCGGGGACCGUCCCCUCGGUAAUGGCGAAUGGGACCCG [A51C A87G], for which the self-cleavage came out at 0.862.
The same measure for GGCCGGCAUGGUCCCAGCCUCCUCGCUGGCGCCGGCUGGGCAACAUUCCGCGGGGACCGUCCCCUCGGUAAUGGUGAAUGGGACCCA [A51C C75U]: 0.141; for GGCCGGCAUGGUCCCAGCCUCCUCGCUGGCGCCGGCUGGGCAACAUUCCGCGGGGACCGUCCCCUCGGUAAUGGCGAAUGGGCCCCA [A51C A83C]: 0.571; for GGCCGGCAUGGUCCCAGCCUCCUCGCUGGCGCCGGCUGGGCAACAUUCCUAGGGGACCGUCCCCUCGGUAAUGGCGAACGGGACCCA [G50U U79C]: 0.507.
Next, GGCCGGCAUGGUCCCAGCCUCCUCGCUGGCGCCGGCUGGGCAACAUUCCGCGGGGACCGUCCCCUCGGUAAUGGCCAAUGGGACCCA [A51C G76C]: 0.982; GGCCGGCAUGGUCCCAGCCUCCUCGCUGGCGCCGGCUGGGCAACAUUCCGCGGGGACCGUCACCUCGGUAAUGGCGAAUGGGACCCA [A51C C62A]: 0.623.
